According to patent US20090275637:

Target: T1, PTP1B catalytic domain (321 residues), GST fusion (Homo sapiens) (UniProt P18031)
T1 sequence: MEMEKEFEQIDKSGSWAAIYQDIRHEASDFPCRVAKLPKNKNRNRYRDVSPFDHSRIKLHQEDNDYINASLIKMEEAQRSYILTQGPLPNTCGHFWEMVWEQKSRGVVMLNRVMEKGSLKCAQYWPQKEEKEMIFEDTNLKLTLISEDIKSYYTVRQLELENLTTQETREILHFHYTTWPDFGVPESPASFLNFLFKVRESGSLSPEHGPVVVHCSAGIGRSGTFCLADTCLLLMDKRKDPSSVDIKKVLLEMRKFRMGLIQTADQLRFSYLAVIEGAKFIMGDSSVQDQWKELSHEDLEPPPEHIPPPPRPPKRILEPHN
Assay: filter
Conditions: round 0 pool, 200-400 nM PTP1B, 125 mM NaCl, 5 mM MgCl2

For “GGGAAUGGAUCCACAUCUACGAAUUCNNNNNNNNNNNNNNNNNNNNNNNNNNNNNNUUCACUGCAGACUUGACGAAGCUU [N30 initial pool]”, the binding was less than 1 % retained.
